Reference: the supplement of paper PMC10126150
± gives the standard deviation of the averaged measurements.

System: ATP
Assay: switch fluorescence ratio, 500 uM ATP over buffer (Cy3 cluster intensity, sum of 5 cycles each) (fold (ratio)); higher = stronger signal-on switching upon ATP binding; sequences stand for … in TCGTCGGCAGCGTCAGATGTGTATAAGAGACAGTTTTTTTTTTTTTTTTTTTTTTTTT…TC
Settings: aptamer strand: ATP DNA aptamer (quencher-CACCTGGGGGAGTATTGCGGAGGAAGG + anchor), 100 nM annealed; ATP concentration: 500 uM
In short: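 Cy3-labelled switching-strand clusters on a modified Illumina MiSeq flow-cell were annealed to 100 nM quencher-labelled ATP aptamer and imaged first in selection buffer, then after 15 min with 500 uM ATP at 22 °C. NaOH stripping and re-annealing separated each of five buffer/ATP cycles, and clusters outside 100-1000 RFU were excluded. The fluorescence ratio sums target-cycle Cy3 intensity over buffer-cycle Cy3 intensity per cluster and averages it per switch-domain sequence.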
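Also: ATP exposure 15 min at 22 °C before imaging.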

TGATAAAGTT
switch fluorescence ratio: 1.03 ± 0.034

AACTCGTAGG
switch fluorescence ratio: 0.995 ± 0.018

TAGCGGGGCA
switch fluorescence ratio: 0.996 ± 0.046

TCGCGAATGG
switch fluorescence ratio: 1.11 ± 0.02

TTGATTTATA
switch fluorescence ratio: 0.983 ± 0.042

ACCTTGGGGA
switch fluorescence ratio: 1.25 ± 0.4

TATATAAGAA
switch fluorescence ratio: 1.01 ± 0.033

AGGATTTATA
switch fluorescence ratio: 0.991 ± 0.086

TTCCCTGTTT
switch fluorescence ratio: 1.01 ± 0.023

GGGGGATGGG
switch fluorescence ratio: 0.998 ± 0.032

TTCAAGGTGC
switch fluorescence ratio: 1.4 ± 0.069

CGGGGCTAGG
switch fluorescence ratio: 0.992 ± 0.017

TCGAGGTCGA
switch fluorescence ratio: 1.01 ± 0.039

CGCGGTATGG
switch fluorescence ratio: 1.04 ± 0.022

TGAAAATGGT
switch fluorescence ratio: 0.996 ± 0.015

TTTGGAGCAC
switch fluorescence ratio: 1.6 ± 0.2

TTTTTTATGC
switch fluorescence ratio: 0.997 ± 0.018

ATCAAAGGGA
switch fluorescence ratio: 0.976 ± 0.048

ATTGAACGGA
switch fluorescence ratio: 1 ± 0.059

GCACGGGGGG
switch fluorescence ratio: 1.03 ± 0.0077

CGGGACGGGG
switch fluorescence ratio: 0.967 ± 0.022

GGTGAGGGAG
switch fluorescence ratio: 0.9998 ± 0.0044

CTATTAGATG
switch fluorescence ratio: 0.994 ± 0.03

ACAAAATTTT
switch fluorescence ratio: 1.03 ± 0.067

AATGACGAGC
switch fluorescence ratio: 1.04 ± 0.017

GGCGCTTGTT
switch fluorescence ratio: 0.975 ± 0.034

CGAGTTAAAT
switch fluorescence ratio: 1.01 ± 0.037

TATACATTCA
switch fluorescence ratio: 1.07 ± 0.019

CCGTGGTACC
switch fluorescence ratio: 1.84 ± 0.12

ATTAGATGAC
switch fluorescence ratio: 1.02 ± 0.016

ATTGCGGGGA
switch fluorescence ratio: 0.9848 ± 0.0072

TTTTGACGCT
switch fluorescence ratio: 0.977 ± 0.012

CTACTTTTTT
switch fluorescence ratio: 1.01 ± 0.023

GAAGGCAAGG
switch fluorescence ratio: 1.07 ± 0.011

AAAAGGCGTG
switch fluorescence ratio: 1.01 ± 0.021

TTTATGTATT
switch fluorescence ratio: 1 ± 0.022

TAAATAGGGT
switch fluorescence ratio: 1.05 ± 0.12

TCTTAAGGGC
switch fluorescence ratio: 0.972 ± 0.01

GTGCTTAATT
switch fluorescence ratio: 1 ± 0.05

GGGGTGTACC
switch fluorescence ratio: 0.985 ± 0.033

ACATACTTTA
switch fluorescence ratio: 1.32 ± 0.015

GGTGATACGA
switch fluorescence ratio: 1.07 ± 0.02

CTTCCTTTTT
switch fluorescence ratio: 3.13 ± 3

ATAGGACATC
switch fluorescence ratio: 1.03 ± 0.04

CCGATAATAG
switch fluorescence ratio: 5.21 ± 2.2

TTAAGGGAAT
switch fluorescence ratio: 1 ± 0.011

GTTGATAGGA
switch fluorescence ratio: 0.988 ± 0.03

AGTTTATAAT
switch fluorescence ratio: 0.982 ± 0.023

TGGAAGAAAT
switch fluorescence ratio: 1.02 ± 0.011

AAGTTGTCCG
switch fluorescence ratio: 0.964 ± 0.0091

GCGTTTTCGT
switch fluorescence ratio: 0.972 ± 0.013

CATGTGAAGC
switch fluorescence ratio: 1.014 ± 0.0072

AAGGGGGCCC
switch fluorescence ratio: 0.99 ± 0.021

TAGGCGGGTG
switch fluorescence ratio: 1.03 ± 0.023

ATTTGAGGTA
switch fluorescence ratio: 1.01 ± 0.012

TTAGGACTTT
switch fluorescence ratio: 0.975 ± 0.037

TCTTGTCGGT
switch fluorescence ratio: 1 ± 0.034

GGGTTTGGAT
switch fluorescence ratio: 0.984 ± 0.025

ATAGGAGTCT
switch fluorescence ratio: 1.09 ± 0.016

ATTTGAGAAA
switch fluorescence ratio: 1.01 ± 0.025

GAGAGCGGTG
switch fluorescence ratio: 0.9953 ± 0.0075

GTTTCGAGGT
switch fluorescence ratio: 0.96 ± 0.012

CACTATGGTG
switch fluorescence ratio: 1.05 ± 0.066

TGTTTAGGTT
switch fluorescence ratio: 1.01 ± 0.071

CCTGGTTTTT
switch fluorescence ratio: 1.12 ± 0.15

CGAGATATTG
switch fluorescence ratio: 0.9827 ± 0.0019

AAAGACCCTG
switch fluorescence ratio: 0.988 ± 0.049

AAGGTATTGC
switch fluorescence ratio: 0.9947 ± 0.0061

GATGCGGGGA
switch fluorescence ratio: 1.01 ± 0.018

GGTTGGAATA
switch fluorescence ratio: 0.965 ± 0.044

CGGAGTAGGG
switch fluorescence ratio: 1.058 ± 0.0023

TACGGTTTTT
switch fluorescence ratio: 0.967 ± 0.019

GGAGGGGGAT
switch fluorescence ratio: 1.03 ± 0.043

CAAGGACGAG
switch fluorescence ratio: 1.02 ± 0.041

TTTCAATCTG
switch fluorescence ratio: 1.04 ± 0.038

AACCTGCTCG
switch fluorescence ratio: 1.1 ± 0.02

ATGCTTATCA
switch fluorescence ratio: 0.9807 ± 0.0051

CGATTTTGGG
switch fluorescence ratio: 0.9844 ± 0.0047

TTTGAGACGT
switch fluorescence ratio: 1.02 ± 0.041

TTAAGATCAT
switch fluorescence ratio: 0.969 ± 0.041

TGGGGAAGTT
switch fluorescence ratio: 1 ± 0.034

ATAGATGAGT
switch fluorescence ratio: 1.012 ± 0.0048

CGGGCGGCGG
switch fluorescence ratio: 0.9921 ± 0.0076

ATAAGAGGGT
switch fluorescence ratio: 0.976 ± 0.049

GAGTAGAAGA
switch fluorescence ratio: 1.01 ± 0.035

TTTTAATTCA
switch fluorescence ratio: 1 ± 0.015

ATAGTAGTGT
switch fluorescence ratio: 0.998 ± 0.015

TACAGGGCCT
switch fluorescence ratio: 0.9882 ± 0.0085

ATACAGCGA
switch fluorescence ratio: 1.066 ± 0.01

TCCGGGCTGG
switch fluorescence ratio: 1.02 ± 0.013

GTGGAATATT
switch fluorescence ratio: 1.04 ± 0.063

GTTGTATCAC
switch fluorescence ratio: 0.9832 ± 0.0097

GTGTGTGGCT
switch fluorescence ratio: 0.976 ± 0.051

TTTCATTGGT
switch fluorescence ratio: 1 ± 0.027

TCTAAATCTT
switch fluorescence ratio: 1.01 ± 0.011

TATGATAACT
switch fluorescence ratio: 1.031 ± 0.0077

TACGTGGCGG
switch fluorescence ratio: 1.02 ± 0.02

GTTTTAGGAG
switch fluorescence ratio: 0.995 ± 0.043

GTGTTAGCTA
switch fluorescence ratio: 1 ± 0.011

CATGGAATAG
switch fluorescence ratio: 1.07 ± 0.011

GGGGGGTCAA
switch fluorescence ratio: 0.967 ± 0.033

GAGGCTTCTA
switch fluorescence ratio: 1.02 ± 0.036

TCCATACTGG
switch fluorescence ratio: 1.004 ± 0.0073

CTTTTTTGCC
switch fluorescence ratio: 1.02 ± 0.019

GGGGATATGC
switch fluorescence ratio: 0.995 ± 0.048

AGTTATCTTA
switch fluorescence ratio: 1.02 ± 0.011

TATTCTCGAC
switch fluorescence ratio: 1.01 ± 0.013

ACCGAGGCTT
switch fluorescence ratio: 1.45 ± 0.051

TAGAAAGCCT
switch fluorescence ratio: 1.06 ± 0.045

AAGGGTTACG
switch fluorescence ratio: 1 ± 0.025

AGGAGGGGT
switch fluorescence ratio: 1.02 ± 0.07

TTTGATTCAG
switch fluorescence ratio: 1.04 ± 0.071

TTGTTGCTTT
switch fluorescence ratio: 1.02 ± 0.03

CCTAGTAGCG
switch fluorescence ratio: 1.01 ± 0.014

GGGGGTCACG
switch fluorescence ratio: 0.978 ± 0.028

TTGGGTACGT
switch fluorescence ratio: 1.02 ± 0.026

GTGCGAGAAC
switch fluorescence ratio: 1.01 ± 0.025

ATCTTTATGG
switch fluorescence ratio: 0.964 ± 0.014

GCAGTTTGGT
switch fluorescence ratio: 0.9978 ± 0.0039

CCTTCACCGT
switch fluorescence ratio: 2.21 ± 0.14

CGTTGATAAG
switch fluorescence ratio: 0.997 ± 0.022

AAAGAGGCAA
switch fluorescence ratio: 1.03 ± 0.047

TCCGTGTCTA
switch fluorescence ratio: 1.07 ± 0.022

GTTGGTGATT
switch fluorescence ratio: 0.9959 ± 0.0062

TCGAAACGGG
switch fluorescence ratio: 1.14 ± 0.24

GAGACAGCGC
switch fluorescence ratio: 1.02 ± 0.062

ATTTCTAGAT
switch fluorescence ratio: 1.024 ± 0.0093

GGGACTATCA
switch fluorescence ratio: 0.982 ± 0.014

ACGATCGAAA
switch fluorescence ratio: 1.24 ± 0.019

AAAACATCGC
switch fluorescence ratio: 1.015 ± 0.0029

GGGGCGGTCC
switch fluorescence ratio: 1.04 ± 0.043

GATGTGCGTC
switch fluorescence ratio: 1.01 ± 0.023

CAGGTTATAT
switch fluorescence ratio: 1.03 ± 0.028

CAGGGGAGCG
switch fluorescence ratio: 0.993 ± 0.037

GCCAGGGAGG
switch fluorescence ratio: 1.03 ± 0.026

TTTCTCGTTG
switch fluorescence ratio: 0.9908 ± 0.0074

CCCAGGGT
switch fluorescence ratio: 1.54 ± 0.67

GTACAGGTTT
switch fluorescence ratio: 1.018 ± 0.0074

TGGGGGGCAA
switch fluorescence ratio: 1.56 ± 1.1

GACTTTTCCT
switch fluorescence ratio: 1.3 ± 0.41

CCCGATTTTG
switch fluorescence ratio: 1.023 ± 0.0069

AAACTCATGA
switch fluorescence ratio: 0.983 ± 0.02

ATTTTTTGTT
switch fluorescence ratio: 0.976 ± 0.047

AATGGGTATC
switch fluorescence ratio: 0.9923 ± 0.0088

TCAATTCTGA
switch fluorescence ratio: 1.002 ± 0.0075

GGTGTGTTTG
switch fluorescence ratio: 1.01 ± 0.046

GTCGCTGTGG
switch fluorescence ratio: 1.04 ± 0.0021

GGCTAATGCG
switch fluorescence ratio: 1.01 ± 0.036

GGGGCGAGTG
switch fluorescence ratio: 1 ± 0.035

TCAGATATTG
switch fluorescence ratio: 0.992 ± 0.04

TTAGAGCTTC
switch fluorescence ratio: 1.01 ± 0.038

TGATGCTGTA
switch fluorescence ratio: 0.977 ± 0.063

CGTTACTTTT
switch fluorescence ratio: 1.02 ± 0.053

TTGGGTCGTT
switch fluorescence ratio: 0.994 ± 0.014

TTGAGGTTGT
switch fluorescence ratio: 0.99 ± 0.028

ATCGCAGATT
switch fluorescence ratio: 1.03 ± 0.019

CCGGTTTTTT
switch fluorescence ratio: 1.003 ± 0.0078

TTTGGGACGC
switch fluorescence ratio: 1.05 ± 0.088

GTTTGCTGGG
switch fluorescence ratio: 0.983 ± 0.035

TTTGAACTTC
switch fluorescence ratio: 1.27 ± 0.38

AGTGGTGCCG
switch fluorescence ratio: 0.989 ± 0.02

GCATTATCTA
switch fluorescence ratio: 1.01 ± 0.07

TCCACATCAA
switch fluorescence ratio: 1.197 ± 0.0086

CCGTGGTTTT
switch fluorescence ratio: 0.99133 ± 5.8e-05

TTTTTTAAGG
switch fluorescence ratio: 1 ± 0.034

TGGTTTTTTT
switch fluorescence ratio: 0.992 ± 0.018

ATTGACGATC
switch fluorescence ratio: 0.994 ± 0.016

GCGCGCACAT
switch fluorescence ratio: 1.01 ± 0.048

TCAGTACGAC
switch fluorescence ratio: 1.2 ± 0.021

ATGGTGGGGA
switch fluorescence ratio: 1.03 ± 0.03

GGGTTTAGAA
switch fluorescence ratio: 0.979 ± 0.049

TTTGTGATG
switch fluorescence ratio: 0.959 ± 0.027

TCATTTCGA
switch fluorescence ratio: 0.988 ± 0.02

ATATGTTGTT
switch fluorescence ratio: 0.98 ± 0.025

GGTCGACTTT
switch fluorescence ratio: 1.0094 ± 0.00072

GGTTCTGGCC
switch fluorescence ratio: 0.996 ± 0.013

GCGTAATGTT
switch fluorescence ratio: 0.999 ± 0.022

TTGCAGTTC
switch fluorescence ratio: 1.88 ± 1

CTGGGGTGGA
switch fluorescence ratio: 1.01 ± 0.036

AGGGAGGTCG
switch fluorescence ratio: 0.973 ± 0.035

GGGGATGAAA
switch fluorescence ratio: 0.989 ± 0.011

GTTGGTATTT
switch fluorescence ratio: 0.971 ± 0.023

TTTGTGGGGC
switch fluorescence ratio: 1.01 ± 0.042

GATGGAGGTT
switch fluorescence ratio: 0.996 ± 0.055

TATATGTGGG
switch fluorescence ratio: 0.9705 ± 0.0077

GGGGTACAAT
switch fluorescence ratio: 1.07 ± 0.041

TCTTTTAAGT
switch fluorescence ratio: 0.97 ± 0.033

ATCTGTTGTC
switch fluorescence ratio: 1.06 ± 0.021

TAATTTCTAA
switch fluorescence ratio: 0.9946 ± 0.0029

CAAATTTCAT
switch fluorescence ratio: 0.985 ± 0.023

TCGAGGGTAG
switch fluorescence ratio: 1.02 ± 0.018

ACGGAACAAG
switch fluorescence ratio: 1.09 ± 0.12

AACGTGGTTT
switch fluorescence ratio: 1.01 ± 0.025

TTTTCCAAAT
switch fluorescence ratio: 1.02 ± 0.024

TCGAGTTG
switch fluorescence ratio: 0.9972 ± 0.0093

CATCCCTCAA
switch fluorescence ratio: 1.86 ± 0.72

TTTTAAAAAA
switch fluorescence ratio: 1 ± 0.026

TTTAAAAAAT
switch fluorescence ratio: 1.02 ± 0.035

GAGGGTATCG
switch fluorescence ratio: 0.984 ± 0.039

GCGGGATGTC
switch fluorescence ratio: 0.972 ± 0.02
